Source: PMC12032919, “A blocking antibody against anti-Müllerian hormone restores ovulation and normal androgen levels in a spontaneous rat model of polycystic ovary syndrome” (eBioMedicine, 2025)

B1: soluble fusion protein containing the extracellular domain of human AMHR2 and the Fc part of human IgG1 (AMHR2-Fc) (Fc fusion)
chain: PPNRRTCVFFEAPGVRGSTKTLGELLDTGTELPRAIRCLYSRCCFGIWNLTQDRAQVEMQGCRDSDEPGCESLHCDPSPRAHPSPGSTLFTCSCGTDFCNANYSHLPPPGSPGTPGSQGPQAAPGESIWMAL
B2: Mab22A2, monoclonal antibody against human AMH (antibody, V domains shown)
VH: QIRLVQSGPELKKPGETVKISCKASGYSFTNYLMHWVKQAPGEALKWMGWINTNIGQPTYAEDFKGRFVFSLEASISTAFLHINSLKDEDTATYFCTSGYFGYDWYFDVWGVGTTVTVSS
VL: DIQMTQSPDSLSASVGETVTITCRASENIQNYLAWYQHKQGKSPQLLVYNAQTLANGVSSRFSGSGSGTHYSLNIHSLQPEDFGTYYCQHFWGTPRTFGGGTKLIIK
notes: the text calls the antibody IgG1a; Mouse IgG1 kappa; also called biotinylated Mab22A2; source: mouse monoclonal, previously prepared by immunisation of female BALB/c mice with human AMH precursor; hybridoma cells

How the values were obtained:
[1] = biological target: T1, human AMH procomplex (completely cleaved AMH, non-covalent complex of the N-terminal and C-terminal homodimers) (human); test: ELISA; AMH captured on Mab10.6 coated on plates, incubated with various concentrations of AMHR2-Fc; bound AMHR2-Fc detected with anti-human Fc antibody conjugated to HRP; n = 3
T1 sequence (P03971 25-560, looked up): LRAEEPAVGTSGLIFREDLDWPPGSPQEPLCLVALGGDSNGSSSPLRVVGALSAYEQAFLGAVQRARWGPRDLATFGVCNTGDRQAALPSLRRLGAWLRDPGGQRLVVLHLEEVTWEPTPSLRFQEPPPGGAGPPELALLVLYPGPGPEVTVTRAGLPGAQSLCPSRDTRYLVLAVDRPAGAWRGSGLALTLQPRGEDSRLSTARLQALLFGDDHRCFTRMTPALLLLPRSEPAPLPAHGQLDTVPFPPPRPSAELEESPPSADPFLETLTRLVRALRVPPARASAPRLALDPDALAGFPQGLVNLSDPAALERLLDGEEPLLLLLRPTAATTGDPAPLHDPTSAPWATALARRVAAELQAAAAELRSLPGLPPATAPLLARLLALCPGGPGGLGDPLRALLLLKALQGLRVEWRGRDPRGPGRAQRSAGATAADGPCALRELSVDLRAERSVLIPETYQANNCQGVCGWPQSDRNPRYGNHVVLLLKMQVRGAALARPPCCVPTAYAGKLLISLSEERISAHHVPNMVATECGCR

[2] = biological target: T2, bovine AMH procomplex present in serum (Bos taurus, UniProt P03972); test: ELISA; AMH of bovine, ovine or mouse serum held on plate-captured AMHR2-Fc; detected with biotinylated Mab22A2 (0.5 ug/mL) and streptavidin-HRP; pair: Mab22A2 with serum AMH; conditions: one partner purified
T2 construct: anti-Müllerian hormone, bovine, N-terminal pro-domain of the procomplex; anti-Müllerian hormone, bovine, C-terminal mature domain of the procomplex; source: endogenous, serum of one bovine sample

[3] = biological target: T3, ovine AMH procomplex present in serum (Ovis aries, UniProt T1SHH2); test: as above; conditions: one partner purified
T3 construct: anti-Müllerian hormone, ovine, N-terminal pro-domain of the procomplex; anti-Müllerian hormone, ovine, C-terminal mature domain of the procomplex; source: endogenous, serum of one ovine sample

[4] = biological target: T4, mouse AMH procomplex present in serum (Mus musculus, strain , UniProt P27106); test: as above; conditions: one partner purified
T4 construct: anti-Müllerian hormone, mouse, N-terminal pro-domain of the procomplex; anti-Müllerian hormone, mouse, C-terminal mature domain of the procomplex; source: endogenous, serum of one mouse sample
T4 sequence (P27106 whole entry, looked up, the tested form may be a part, one chain of several): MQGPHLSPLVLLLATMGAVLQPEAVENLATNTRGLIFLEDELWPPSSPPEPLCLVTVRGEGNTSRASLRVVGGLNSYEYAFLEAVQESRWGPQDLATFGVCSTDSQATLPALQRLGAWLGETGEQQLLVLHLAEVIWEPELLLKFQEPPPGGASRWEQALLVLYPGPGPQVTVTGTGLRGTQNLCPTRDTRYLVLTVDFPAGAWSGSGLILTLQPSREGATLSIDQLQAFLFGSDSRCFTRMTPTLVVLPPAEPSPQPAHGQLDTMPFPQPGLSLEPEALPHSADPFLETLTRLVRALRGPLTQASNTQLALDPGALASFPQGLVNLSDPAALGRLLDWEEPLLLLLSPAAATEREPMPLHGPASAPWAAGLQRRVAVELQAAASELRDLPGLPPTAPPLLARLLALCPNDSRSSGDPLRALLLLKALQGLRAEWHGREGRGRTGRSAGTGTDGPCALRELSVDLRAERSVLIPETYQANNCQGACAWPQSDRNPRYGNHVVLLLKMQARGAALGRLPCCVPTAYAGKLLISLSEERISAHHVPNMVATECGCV

| Binder | mean AUC of the ELISA curve [1] | binding result [2] | binding result [3] | binding result [4] |
| --- | --- | --- | --- | --- |
| B1 | 75900 |  |  |  |
| B2 |  | binds | binds | binds |
